Patent US20050203007A1 (REGENTS OF THE UNIVERSITY OF MICHIGAN, published 2005)

How the values were obtained:
secreted, soluble Kex2 [1] = biological target: T1, secreted, soluble Kex2 (Saccharomyces cerevisiae, UniProt P13134 114-613, limits assumed); assay: enzyme inhibition, purified variant; Kassoc
T1 construct: Secreted, soluble construct; also called kexin
T1 sequence (looked up): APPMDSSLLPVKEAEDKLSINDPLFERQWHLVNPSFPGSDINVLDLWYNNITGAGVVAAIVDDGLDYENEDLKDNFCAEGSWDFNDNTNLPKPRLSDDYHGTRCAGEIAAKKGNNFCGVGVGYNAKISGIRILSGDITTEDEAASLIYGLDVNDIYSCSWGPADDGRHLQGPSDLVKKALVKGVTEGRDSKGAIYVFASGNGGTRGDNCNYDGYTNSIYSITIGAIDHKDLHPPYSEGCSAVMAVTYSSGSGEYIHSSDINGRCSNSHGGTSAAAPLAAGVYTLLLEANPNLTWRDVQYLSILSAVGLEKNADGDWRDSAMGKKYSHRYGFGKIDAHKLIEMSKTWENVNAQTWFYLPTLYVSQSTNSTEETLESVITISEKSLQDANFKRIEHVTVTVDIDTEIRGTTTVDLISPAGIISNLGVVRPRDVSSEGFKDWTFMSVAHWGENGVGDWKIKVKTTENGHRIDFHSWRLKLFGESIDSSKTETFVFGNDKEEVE

secreted, soluble furin [2] = biological target: T2, secreted, soluble furin (human, UniProt P09958 108-715, limits assumed); assay: enzyme inhibition, purified variant; Kassoc
T2 construct: Secreted, soluble construct; also called human furin

human PC7 [3] = biological target: T3, human PC7 (human, UniProt Q16549 142-667, limits assumed); assay: enzyme inhibition, purified variant; Kassoc
T3 sequence (looked up): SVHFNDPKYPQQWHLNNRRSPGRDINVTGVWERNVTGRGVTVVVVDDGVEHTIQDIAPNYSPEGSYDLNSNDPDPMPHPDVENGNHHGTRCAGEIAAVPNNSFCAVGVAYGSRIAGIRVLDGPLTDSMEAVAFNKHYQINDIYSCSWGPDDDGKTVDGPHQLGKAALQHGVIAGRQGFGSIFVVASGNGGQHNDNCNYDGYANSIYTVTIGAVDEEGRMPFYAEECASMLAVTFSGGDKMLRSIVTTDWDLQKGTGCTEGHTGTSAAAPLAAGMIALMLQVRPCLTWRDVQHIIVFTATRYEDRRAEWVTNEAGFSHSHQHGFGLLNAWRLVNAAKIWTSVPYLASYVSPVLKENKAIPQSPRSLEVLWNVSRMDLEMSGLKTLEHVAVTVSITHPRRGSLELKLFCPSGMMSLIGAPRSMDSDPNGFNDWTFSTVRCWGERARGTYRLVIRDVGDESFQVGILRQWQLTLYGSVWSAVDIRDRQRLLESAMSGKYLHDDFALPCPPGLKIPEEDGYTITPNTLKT

secreted, soluble furin [4] = biological target: T2, secreted, soluble furin; assay: affinity resin, eglin immobilized on Reacti-Gel 6X
Procedure: Resins were synthesized by immobilizing purified M4R1-eglin and R4R1-eglin onto Reacti-Gel 6X (Pierce) using the manufacturer's protocol.
The resins were then used to test binding and elution of furin from these resins. […] Enzyme was eluted with 20 mM NaMES (pH 6.0) with approximately 90% yield. Furin binding capacity to the R4R1-eglin Resin was 10-fold higher relative to the M4R1-eglin Resin, but furin was not eluted by dropping pH. Instead, furin bound to the R4R1-eglin column was eluted with buffer containing 2 mM EDTA. 5 mM CaCl₂ was added to restore activity and 85% of the furin activity was recovered. (Unit definition: Release of 1 pmol of AMC/min in a reaction containing […] Boc-Arg-Val-Arg-Arg-MCA, 1 mM CaCl₂ and 20 mM NaMES (pH 7.0) at 37° C.

secreted, soluble Kex2 [5] = biological target: T1, secreted, soluble Kex2; assay: cell-based or functional assay
secreted, soluble furin [6] = biological target: T2, secreted, soluble furin; assay: cell-based or functional assay
human PC7 [7] = biological target: T3, human PC7; assay: cell-based or functional assay
secreted, soluble Kex2 [8] = biological target: T1, secreted, soluble Kex2; assay: equilibrium enzyme inhibition, fluorogenic substrate
secreted, soluble furin [9] = biological target: T2, secreted, soluble furin; assay: as above
secreted, soluble Kex2 [10] = biological target: T1, secreted, soluble Kex2; assay: enzyme inhibition, purified variant
Procedure: (§1) Affinities of eglin variants with secreted, soluble Kex2 (hereafter “Kex2”; Brenner, C. and Fuller, R. S. (1992) Proc. Natl. Acad. Sci. USA 89: 922-926) and secreted, soluble furin (hereafter, “furin”; Bravo, D. A. et al (1994) J. Biol. Chem. 269: 25830-25837; and Komiyama & Fuller (2000) Biochemistry 39: 15156-15165) were measured by incubating variants with the enzymes (˜0.5 to 2.0 nM) for 45 min to 1 h at 21° C. in one of two enzyme assay buffers. For Kex2, the buffer was 200 mM Bistris (pH 7.27) containing 1 mM CaCl₂ and 0.1% Triton X-100; and for furin, the buffer was 20 mM NaMES (pH 7.0) containing 1 mM CaCl₂ and 0.1% Triton X-100 for furin. 100 to 200 μL aliquots of reaction mixtures were transferred into triplicate wells of opaque 96 well plates (Costar), and residual enzyme activity was measured with an fmax fluorescence micro plate reader (Molecular Devices) by monitoring hydrolysis of a fluorogenic substrate Boc-Arg-Val-Arg-Arg-MCA. Data were graphically analyzed (KaleidaGraph) with an equation developed by Green and Work (1953). Site-directed mutagenesis at P2 and P6 of eglin c generated temporary inhibitors (Table 3) and exhausted possibility to improve affinity further with this approach.

secreted, soluble furin [11] = biological target: T2, secreted, soluble furin; assay: enzyme inhibition, purified variant
Procedure: as §1

trypsin = assay: enzyme inhibition; temporary inhibitor of trypsin
Sequence of trypsin (P00760 24-246): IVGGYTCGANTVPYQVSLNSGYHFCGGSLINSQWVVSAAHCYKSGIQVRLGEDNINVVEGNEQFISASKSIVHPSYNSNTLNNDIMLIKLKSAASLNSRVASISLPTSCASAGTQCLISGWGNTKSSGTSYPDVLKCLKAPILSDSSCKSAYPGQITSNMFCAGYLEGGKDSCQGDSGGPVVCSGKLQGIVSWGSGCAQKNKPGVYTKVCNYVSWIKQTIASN

T2 sequence (P09958 108-715 limits assumed): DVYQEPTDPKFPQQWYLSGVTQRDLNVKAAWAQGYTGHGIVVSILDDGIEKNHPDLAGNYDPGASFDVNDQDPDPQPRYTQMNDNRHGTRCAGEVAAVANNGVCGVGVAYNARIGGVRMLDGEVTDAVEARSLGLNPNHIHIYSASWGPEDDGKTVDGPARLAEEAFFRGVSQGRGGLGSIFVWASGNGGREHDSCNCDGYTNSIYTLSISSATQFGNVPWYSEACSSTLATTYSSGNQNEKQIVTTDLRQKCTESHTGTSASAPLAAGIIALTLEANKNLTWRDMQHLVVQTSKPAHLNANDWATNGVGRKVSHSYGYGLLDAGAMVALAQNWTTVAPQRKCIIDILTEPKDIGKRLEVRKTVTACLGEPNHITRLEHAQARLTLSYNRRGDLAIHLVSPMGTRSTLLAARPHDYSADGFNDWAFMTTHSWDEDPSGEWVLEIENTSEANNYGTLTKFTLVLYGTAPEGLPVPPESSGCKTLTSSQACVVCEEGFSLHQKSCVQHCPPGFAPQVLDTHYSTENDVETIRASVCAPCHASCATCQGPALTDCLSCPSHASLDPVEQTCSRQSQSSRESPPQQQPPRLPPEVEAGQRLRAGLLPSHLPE

Ka (secreted, soluble Kex2 [1]): 1.1e+09 M⁻¹
Ka (secreted, soluble furin [2]): 4e+08 M⁻¹
Ka (human PC7 [3]): 7.7e+08 M⁻¹
furin binding capacity of the resin relative to the M4R1-eglin Resin (secreted, soluble furin [4]): 10 fold
% inhibition of enzyme in rapid protease inhibition assay (secreted, soluble Kex2 [5]): 60%
% inhibition of enzyme in rapid protease inhibition assay (secreted, soluble furin [6]): 60%
% inhibition of enzyme in rapid protease inhibition assay (human PC7 [7]): 70%
Ki (secreted, soluble Kex2 [8]): 0.91 nM
Ki (secreted, soluble furin [9]): 2.5 nM
Ki (secreted, soluble Kex2 [10]): 0.91 nM
Ki ratio (to R4R1- template) (secreted, soluble Kex2 [10]): 1
Ki (secreted, soluble furin [11]): 2.5 nM
Ki ratio (to R4R1- template) (secreted, soluble furin [11]): 1
Ka (trypsin): 8.4e+09 M⁻¹
B1: R4R1-eglin (designed binder)
chain: SMGSELKSFPEVVGKTVDQAREYFTLHYPQYDVYFLPEGSRVTRDLRYNRVRVFYNPGTNVVNHVPHVG
notes: N-terminal Met removed; also called Tyr49-R4R1-; D33Y49
